The source of these data is patent US20210188909A1 (SANFORD BURNHAM PREBYS MEDICAL DISCOVERY INSTITUTE, published 2021).

Test [1] has as its target T1, BSA (UniProt P02769 25-607).
T1 construct: Control protein on beads
As to the kind of experiment: T7 phage clone binding to protein-coated magnetic beads.

Test [2] has as its target T2, ligand-binding b1b2 domain of the cell and tissue penetration receptor NRP-1 (UniProt O14786 273-586, limits assumed).
T2 construct: domain: b1b2; Coated on magnetic beads; also called NRP-1 b1b2; NRP-1 b1b2 domain
T2 sequence (looked up): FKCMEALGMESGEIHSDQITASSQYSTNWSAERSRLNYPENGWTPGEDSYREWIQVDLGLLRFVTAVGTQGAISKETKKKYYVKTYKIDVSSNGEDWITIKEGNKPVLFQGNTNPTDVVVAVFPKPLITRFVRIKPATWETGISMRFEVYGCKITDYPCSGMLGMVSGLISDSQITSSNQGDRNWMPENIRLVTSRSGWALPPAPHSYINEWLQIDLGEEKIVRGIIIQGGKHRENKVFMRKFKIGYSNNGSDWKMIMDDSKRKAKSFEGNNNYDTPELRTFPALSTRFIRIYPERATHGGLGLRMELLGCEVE
The description is as above.

The target in test [3] is T3, recombinant 6x-His-tagged p32 protein (gC1qR/p32) (UniProt Q07021 74-282).
T3 construct: Predominantly (>97%) a trimer by sedimentation velocity; also called gC1q/p32 receptor; recombinant p32
T3 sequence (looked up): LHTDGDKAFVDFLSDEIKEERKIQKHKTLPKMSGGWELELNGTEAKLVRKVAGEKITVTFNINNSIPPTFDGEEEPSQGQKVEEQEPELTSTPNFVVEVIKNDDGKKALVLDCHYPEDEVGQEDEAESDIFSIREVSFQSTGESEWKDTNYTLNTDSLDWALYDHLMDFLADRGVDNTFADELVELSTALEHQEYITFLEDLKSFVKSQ
Kind of test: T7 phage clone binding to immobilized p32 (FIG. 3).

The target in test [4] is T3, recombinant 6x-His-tagged p32 protein …. As to the kind of experiment: T7 phage binding to immobilized p32; reference LyP-1-displaying phage.
Test [5] addresses T2, ligand-binding b1b2 domain of the cell …. Kind of test: uPA-treated T7 phage binding to NRP-1 b1b2; reference untreated phage.
Test [6] has as its target T4, NRP-1 (control protein in the fluorescence polarization assay) (UniProt O14786 273-586, limits assumed).
T4 construct: also called neuropilin-1
T4 sequence (looked up): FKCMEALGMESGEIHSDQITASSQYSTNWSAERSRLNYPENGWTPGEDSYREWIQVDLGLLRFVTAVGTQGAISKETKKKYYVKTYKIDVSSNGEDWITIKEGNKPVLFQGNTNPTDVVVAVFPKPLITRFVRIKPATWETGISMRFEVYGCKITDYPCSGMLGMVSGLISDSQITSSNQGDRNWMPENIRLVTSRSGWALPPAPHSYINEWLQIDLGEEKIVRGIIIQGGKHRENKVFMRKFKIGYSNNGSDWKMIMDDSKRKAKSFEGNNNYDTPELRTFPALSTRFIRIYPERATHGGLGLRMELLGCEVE
Kind of test: fluorescence polarization assay with synthetic peptide, NRP-1 as control protein. Background: In fluorescence polarisation assays a small probe gives low polarisation when free and higher when bound to something large.

Ends that are not written are not given here.

T1 sequence (P02769 25-607 limits assumed): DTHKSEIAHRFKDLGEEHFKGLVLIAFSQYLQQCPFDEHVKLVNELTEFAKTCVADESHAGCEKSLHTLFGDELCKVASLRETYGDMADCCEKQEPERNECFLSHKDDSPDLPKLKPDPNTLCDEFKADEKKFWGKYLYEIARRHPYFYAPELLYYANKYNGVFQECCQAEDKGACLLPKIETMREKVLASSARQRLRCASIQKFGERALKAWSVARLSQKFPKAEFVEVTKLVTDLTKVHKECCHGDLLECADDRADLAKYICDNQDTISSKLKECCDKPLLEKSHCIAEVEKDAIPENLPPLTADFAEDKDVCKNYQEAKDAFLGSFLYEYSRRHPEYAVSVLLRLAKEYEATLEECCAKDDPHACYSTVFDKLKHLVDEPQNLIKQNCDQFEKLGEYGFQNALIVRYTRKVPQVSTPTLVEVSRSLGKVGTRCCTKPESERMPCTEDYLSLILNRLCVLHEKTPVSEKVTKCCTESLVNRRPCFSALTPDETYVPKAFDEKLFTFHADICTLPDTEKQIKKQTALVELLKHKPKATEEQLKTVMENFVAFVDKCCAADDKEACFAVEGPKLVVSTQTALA

B1: T7 phage displaying CARGKRSLC (SEQ ID NO: 184) (peptide)
peptide: CARGKRSLC
modifications: not fully specified (bridges); cysteine pairing not given here; also: displayed on T7 phage
notes: also called RGXRS-displaying phage
As to B1, the binding result in test [1] and in test [2] was “no binding” in each case.

B2: T7 phage displaying RMRRIDR (SEQ ID NO: 190) (peptide)
peptide: RMRRIDR
notes: also called phage clone selected on NRP-1 b1b2 domain
Take B2: the binding result in test [3] is “no binding”.

B3: T7 phage displaying CQRGTRSRC (SEQ ID NO: 182) (peptide)
peptide: CQRGTRSRC
modifications: not fully specified (bridges); cysteine pairing not given here; also: displayed on T7 phage
notes: as for B1
Regarding B3, the binding result in test [1] and in test [2] was “no binding” in each case.

B4: T7 phage displaying GRGGRSRKLAAALE (SEQ ID NO: 161) (peptide)
peptide: GRGGRSRKLAAALE
notes: the C-terminal KLAAALE element is encoded by the phage genomic DNA; also called RGXRS-displaying phage
As to B4, the binding result in test [1] and in test [2] was “no binding” in each case.
For RKRGGRS (also called RGXRS-displaying phage) [T7 phage displaying RKRGGRS (SEQ ID NO: 166)], the binding result in test [1] and in test [2] was “no binding” each time.

B5: T7 phage displaying SMNEVRKR (SEQ ID NO: 192) (peptide)
peptide: SMNEVRKR
notes: as for B2
In the case of B5, in test [3], the binding result is “no binding”.

B6: T7 phage displaying CTRGSRSKC (SEQ ID NO: 177) (peptide)
peptide: CTRGSRSKC
modifications: not fully specified (bridges); cysteine pairing not given here; also: displayed on T7 phage
notes: as for B1
On to B6, for which the binding result in test [1] and in test [2] was “no binding” throughout.

B7: T7 phage displaying CKRGSRSSC (SEQ ID NO: 181) (peptide)
peptide: CKRGSRSSC
modifications: not fully specified (bridges); cysteine pairing not given here; also: displayed on T7 phage
notes: as for B1
B7: the binding result in test [1] and in test [2] was “no binding” throughout.

B8: T7 phage displaying the TT1 peptide CKRGARSTC (SEQ ID NO: 3) (peptide)
peptide: CKRGARSTC
notes: The phage protein it is fused to is not described; also called TT1 phage; TT phage
For B8, the “fold stronger phage binding than the LyP-1 peptide” value in test [4] was approximately 15 fold. Moreover, the binding result in test [1] and in test [2] was “no binding” in each case.

B9: T7 phage displaying CVRGGRARC (SEQ ID NO: 183) (peptide)
peptide: CVRGGRARC
modifications: not fully specified (bridges); cysteine pairing not given here; also: displayed on T7 phage
notes: carries RGGRA rather than RGXRS
As to B9, in test [2], the binding result is listed as “no binding”.

B10: uPA-treated T7 phage displaying the TT1 peptide (peptide)
peptide: CKRGAR
modifications: not fully specified
notes: not shown: T7 phage capsid (display carrier)
Consider B10, for which the “fold enhancement of binding” value in test [5] is 180 fold.

B11: T7 phage displaying CARGARTKC (SEQ ID NO: 176) (peptide)
peptide: CARGARTKC
modifications: not fully specified (bridges); cysteine pairing not given here; also: displayed on T7 phage
notes: carries RGART rather than RGXRS
With B11, the binding result in test [2] is “no binding”.

B12: T7 phage displaying SGVSRDR (SEQ ID NO: 191) (peptide)
peptide: SGVSRDR
notes: as for B2
Consider B12, for which, in test [3], the binding result is reported as “no binding”.

B13: T7 phage displaying CKRGNRSVC (SEQ ID NO: 178) (peptide)
peptide: CKRGNRSVC
modifications: not fully specified (bridges); cysteine pairing not given here; also: displayed on T7 phage
notes: as for B1
Regarding B13, the binding result in test [1] and in test [2] was “no binding” in each case.

B14: synthetic TT1 Peptide CKRGARSTC (SEQ ID NO: 3), cyclic (peptide)
peptide: CKRGARSTC
modifications: also: cyclic (CycTT1), ring type not given here, used labeled and unlabeled, label and position not given here
notes: Free synthetic peptide used in fluorescence polarization assays; also called CycTT1; cyclic TT1 Peptide
On to B14, for which the binding result in test [6] was “no binding”.

B15: T7 phage displaying SRLGRMR (SEQ ID NO: 193) (peptide)
peptide: SRLGRMR
notes: as for B2
As to B15, the binding result in test [3] is on record as “no binding”.
